# Test results taken from article PMC4692061 (Biochemical Journal, 2015).
# B1: full-length EphA3 (erythropoietin-producing hepatocellular carcinoma A3 receptor tyrosine kinase) tagged at the C-terminus with mTurq or eYFP (receptor, UniProt P29320 21-983, looked up)
# chain: ELIPQPSNEVNLLDSKTIQGELGWISYPSHGWEEISGVDEHYTPIRTYQVCNVMDHSQNNWLRTNWVPRNSAQKIYVELKFTLRDCNSIPLVLGTCKETFNLYYMESDDDHGVKFREHQFTKIDTIAADESFTQMDLGDRILKLNTEIREVGPVNKKGFYLAFQDVGACVALVSVRVYFKKCPFTVKNLAMFPDTVPMDSQSLVEVRGSCVNNSKEEDPPRMYCSTEGEWLVPIGKCSCNAGYEERGFMCQACRPGFYKALDGNMKCAKCPPHSSTQEDGSMNCRCENNYFRADKDPPSMACTRPPSSPRNVISNINETSVILDWSWPLDTGGRKDVTFNIICKKCGWNIKQCEPCSPNVRFLPRQFGLTNTTVTVTDLLAHTNYTFEIDAVNGVSELSSPPRQFAAVSITTNQAAPSPVLTIKKDRTSRNSISLSWQEPEHPNGIILDYEVKYYEKQEQETSYTILRARGTNVTISSLKPDTIYVFQIRARTAAGYGTNSRKFEFETSPDSFSISGESSQVVMIAISAAVAIILLTVVIYVLIGRFCGYKSKHGADEKRLHFGNGHLKLPGLRTYVDPHTYEDPTQAVHEFAKELDATNISIDKVVGAGEFGEVCSGRLKLPSKKEISVAIKTLKVGYTEKQRRDFLGEASIMGQFDHPNIIRLEGVVTKSKPVMIVTEYMENGSLDSFLRKHDAQFTVIQLVGMLRGIASGMKYLSDMGYVHRDLAARNILINSNLVCKVSDFGLSRVLEDDPEAAYTTRGGKIPIRWTSPEAIAYRKFTSASDVWSYGIVLWEVMSYGERPYWEMSNQDVIKAVDEGYRLPPPMDCPAALYQLMLDCWQKDRNNRPKFEQIVSILDKLIRNPGSLKIITSAAARPSNLLLDQSNVDITTFRTTGDWLNGVWTAHCKEIFTGVEYSSCDTIAKISTDDMKKVGVTVVGPQKKIISSIKALETQSKNGPVPV
# Target: the molecule itself
# Experiment: FRET or BRET
protein,measurement,value
B1,stoichiometry N,2
